Laboratory results: patent US20180037657A1 (AGENSYS, published 2018)
Blank lines part the entries; values can stand above or below the molecule they belong to.

Tests used:
[1] = molecular target: FLT3 on the cell surface (human leukemia cell lines and patient cells) (human) (UniProt P36888); test: flow cytometry, biotinylated antibody 10 ug/ml + Streptavidin-PE, REH cells (ALL)
[2] = molecular target: FLT3 on the cell surface (human leukemia cell lines and patient cells) (human) (UniProt P36888); test: flow cytometry, biotinylated antibody 10 ug/ml + Streptavidin-PE, EOL-1 cells (AML)
[3] = molecular target: FLT3 on the cell surface (human leukemia cell lines and patient cells) (human) (UniProt P36888); test: flow cytometry, biotinylated antibody 10 ug/ml + Streptavidin-PE, PL-21 cells (AML)
[4] = molecular target: FLT3 on the cell surface (human leukemia cell lines and patient cells) (human) (UniProt P36888); test: flow cytometry, biotinylated antibody 10 ug/ml + Streptavidin-PE, SEM cells (B-ALL)
[5] = molecular target: FLT3 on the cell surface (human leukemia cell lines and patient cells) (human) (UniProt P36888); test: flow cytometry, biotinylated antibody 10 ug/ml + Streptavidin-PE, SKM-1 cells (AML)
[6] = molecular target: FLT3 on the cell surface (human leukemia cell lines and patient cells) (human) (UniProt P36888); test: flow cytometry, biotinylated antibody 10 ug/ml + Streptavidin-PE, THP-1 cells (AML)
[7] = molecular target: FLT3 on the cell surface (human leukemia cell lines and patient cells) (human) (UniProt P36888); test: flow cytometry, biotinylated antibody 10 ug/ml + Streptavidin-PE, NALM-1 cells (CML)
[8] = molecular target: FLT3 on the cell surface (human leukemia cell lines and patient cells) (human) (UniProt P36888); test: flow cytometry, biotinylated antibody 10 ug/ml + Streptavidin-PE, MOLM-13 cells (AML)
[9] = molecular target: FLT3 on the cell surface (human leukemia cell lines and patient cells) (human) (UniProt P36888); test: flow cytometry, biotinylated antibody 10 ug/ml + Streptavidin-PE, MV-4-11 cells (AML)
[10] = molecular target: FLT3 on the cell surface (human leukemia cell lines and patient cells) (human) (UniProt P36888); test: flow cytometry, biotinylated antibody 10 ug/ml + Streptavidin-PE, OCI-AML2 cells (AML)
[11] = molecular target: FLT3 on the cell surface (human leukemia cell lines and patient cells) (human) (UniProt P36888); test: flow cytometry, biotinylated antibody 10 ug/ml + Streptavidin-PE, RS4;11 cells (B-ALL)
[12] = molecular target: FLT3 on the cell surface (human leukemia cell lines and patient cells) (human) (UniProt P36888); test: flow cytometry, biotinylated antibody 10 ug/ml + Streptavidin-PE, MONOMAC-1 cells (AML)
[13] = molecular target: T1, FLT3 on the cell surface (human leukemia cell lines and patient cells) (human, UniProt P36888 27-993); test: flow cytometry, biotinylated antibody 10 ug/ml + Streptavidin-PE, REH cells (ALL)
T1 construct: Endogenous or recombinant FLT3 on cells; also called Fms like tyrosine kinase 3 receptor; Flk2
T1 sequence (P36888 27-993 T227M limits assumed): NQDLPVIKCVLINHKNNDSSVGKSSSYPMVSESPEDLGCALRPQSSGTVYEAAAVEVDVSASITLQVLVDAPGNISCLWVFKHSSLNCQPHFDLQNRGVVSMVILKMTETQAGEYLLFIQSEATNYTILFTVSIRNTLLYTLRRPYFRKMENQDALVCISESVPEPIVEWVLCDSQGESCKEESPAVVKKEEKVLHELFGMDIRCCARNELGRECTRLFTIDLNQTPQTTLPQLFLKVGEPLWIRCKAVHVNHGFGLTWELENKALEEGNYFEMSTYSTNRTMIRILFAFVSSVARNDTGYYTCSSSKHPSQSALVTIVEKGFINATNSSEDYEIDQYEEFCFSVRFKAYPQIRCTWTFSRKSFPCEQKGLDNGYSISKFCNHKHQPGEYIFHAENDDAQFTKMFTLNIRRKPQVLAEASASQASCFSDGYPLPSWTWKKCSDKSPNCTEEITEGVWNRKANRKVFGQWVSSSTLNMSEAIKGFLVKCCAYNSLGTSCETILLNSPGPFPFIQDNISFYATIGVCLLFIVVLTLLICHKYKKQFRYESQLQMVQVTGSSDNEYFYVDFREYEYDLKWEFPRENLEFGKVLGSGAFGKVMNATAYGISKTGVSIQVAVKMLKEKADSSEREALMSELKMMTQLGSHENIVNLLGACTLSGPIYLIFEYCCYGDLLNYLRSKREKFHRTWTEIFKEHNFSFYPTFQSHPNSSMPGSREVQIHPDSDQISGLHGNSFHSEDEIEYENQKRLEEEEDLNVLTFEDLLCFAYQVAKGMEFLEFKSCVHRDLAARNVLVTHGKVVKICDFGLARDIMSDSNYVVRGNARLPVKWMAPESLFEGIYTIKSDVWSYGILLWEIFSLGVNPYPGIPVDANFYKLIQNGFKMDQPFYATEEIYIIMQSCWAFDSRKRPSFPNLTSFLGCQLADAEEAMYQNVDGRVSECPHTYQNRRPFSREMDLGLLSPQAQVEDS
Description: (§1) CHv62.21 was tested for binding to AML and B-ALL cell lines grown in vitro. (See, Table VII). Briefly, CHv62.21 and an isotype matched control antibody were biotinylated using NHS LC biotin. In vitro, exponentially grown cancer cell lines were used for all experiments. Cells were harvested by and washed by centrifugation. Cells were Fc blocked to reduce non-specific binding. Antibodies were diluted to 10 ug/ml final concentration and co-incubated with cells at 4° C. for 1 hour. At the end of the incubation, cells were washed and incubated with secondary detection Streptavidin-PE antibody at a final 1:200 (2.5 ug/ml) dilution for 1 hour at 4° C. After washing un-bound secondary antibody, cells were analyzed by FACS and geometric mean fluorescence was determined and reported. Fluorescence ratio was calculated as follows: Geo mean cHv62.21/Geo mean isotype control=MFR, a measure of fold expression above isotype control.

[14] = molecular target: T1, FLT3 on the cell surface (human …); test: flow cytometry, biotinylated antibody 10 ug/ml + Streptavidin-PE, EOL-1 cells (AML)
Description: as §1

[15] = molecular target: T1, FLT3 on the cell surface (human …); test: flow cytometry, biotinylated antibody 10 ug/ml + Streptavidin-PE, PL-21 cells (AML)
Description: as §1

[16] = molecular target: T1, FLT3 on the cell surface (human …); test: flow cytometry, biotinylated antibody 10 ug/ml + Streptavidin-PE, SEM cells (B-ALL)
Description: as §1

[17] = molecular target: T1, FLT3 on the cell surface (human …); test: flow cytometry, biotinylated antibody 10 ug/ml + Streptavidin-PE, SKM-1 cells (AML)
Description: as §1

[18] = molecular target: T1, FLT3 on the cell surface (human …); test: flow cytometry, biotinylated antibody 10 ug/ml + Streptavidin-PE, THP-1 cells (AML)
Description: as §1

[19] = molecular target: T1, FLT3 on the cell surface (human …); test: flow cytometry, biotinylated antibody 10 ug/ml + Streptavidin-PE, NALM-1 cells (CML)
Description: as §1

[20] = molecular target: T1, FLT3 on the cell surface (human …); test: flow cytometry, biotinylated antibody 10 ug/ml + Streptavidin-PE, MOLM-13 cells (AML)
Description: as §1

[21] = molecular target: T1, FLT3 on the cell surface (human …); test: flow cytometry, biotinylated antibody 10 ug/ml + Streptavidin-PE, MV-4-11 cells (AML)
Description: as §1

[22] = molecular target: T1, FLT3 on the cell surface (human …); test: flow cytometry, biotinylated antibody 10 ug/ml + Streptavidin-PE, OCI-AML2 cells (AML)
Description: as §1

[23] = molecular target: T1, FLT3 on the cell surface (human …); test: flow cytometry, biotinylated antibody 10 ug/ml + Streptavidin-PE, RS4;11 cells (B-ALL)
Description: as §1

[24] = molecular target: T1, FLT3 on the cell surface (human …); test: flow cytometry, biotinylated antibody 10 ug/ml + Streptavidin-PE, MONOMAC-1 cells (AML)
Description: as §1

FLT3 on the cell surface (human leukemia cell lines and patient cells) (human), sequence (P36888 27-993 T227M limits assumed): as above

Geometric Mean fluorescence [1]: 235
Geometric Mean fluorescence [2]: 281
Geometric Mean fluorescence [3]: 570
Geometric Mean fluorescence [4]: 212
Geometric Mean fluorescence [5]: 445
Geometric Mean fluorescence [6]: 474
Geometric Mean fluorescence [7]: 262
Geometric Mean fluorescence [8]: 320
Geometric Mean fluorescence [9]: 366
Geometric Mean fluorescence [10]: 329
Geometric Mean fluorescence [11]: 213
Geometric Mean fluorescence [12]: 338
Molecule: isotype matched control antibody (Table VI)

MFR (Geo mean cHv62.21/Geo mean isotype control) [13]: 69 fold
MFR (Geo mean cHv62.21/Geo mean isotype control) [14]: 50 fold
MFR (Geo mean cHv62.21/Geo mean isotype control) [15]: 7 fold
MFR (Geo mean cHv62.21/Geo mean isotype control) [16]: 623 fold
MFR (Geo mean cHv62.21/Geo mean isotype control) [17]: 7 fold
MFR (Geo mean cHv62.21/Geo mean isotype control) [18]: 42 fold
MFR (Geo mean cHv62.21/Geo mean isotype control) [19]: 49 fold
MFR (Geo mean cHv62.21/Geo mean isotype control) [20]: 44 fold
MFR (Geo mean cHv62.21/Geo mean isotype control) [21]: 8 fold
MFR (Geo mean cHv62.21/Geo mean isotype control) [22]: 17 fold
MFR (Geo mean cHv62.21/Geo mean isotype control) [23]: 86 fold
MFR (Geo mean cHv62.21/Geo mean isotype control) [24]: 34 fold
B1: CHv62.21 MAb (antibody, human IgG1, kappa, V domains shown)
VH: EVQLVESGGGLVRPGGSLRLSCAASGFTFSGYSINWVRQAPGKGLEWVSSISSSSNYIYYADSVKGRFTISRDNAKNSLYLQMNSLRAEDTAVYYCAREGFIAGTTFDAFDIWGQGTMVTVSS
VL: DIQMTQSPSSLSASVGDRVTITCRASQGIRNDLGWYQQKPGKAPKRLIYAASSLQSGVPSRFSGSGSGTEFTLTISSLQPEDFATYYCLQHNGFPYTFGQGTKLEIKR
notes: also called cHv62-1b21.1
